Measured values taken from paper PMC6648351 (Nucleic Acids Research, 2019).

Molecular target: the molecule itself
Experiment: SEC

Protein | stoichiometry N
gp577 mutant D92A (enzyme, Acanthamoeba polyphaga mimivirus, UniProt A0A0G2YDL0 1-470, looked up) MAEDKIEAYNKSITRTKYFKMDDAINSPICSKTVFIIANERITKENRIGRYYTVFPSFKKFLKKRDSYPHCHEIIIDHINNKTNIAGRLVFAFDIKITDSSILKDTGLIDKNDNQPIMFNSKTLSITKIPLNFKQQIENTIIETIDQYFHDIDKTILEFIWSTSQNPNKFSKHLTVKNLYFDDWITMSKLFYKLFCKVWDNQYYWISSKDLVDSQIVRNKGSLRMVGSTKINGYPLVFDNKNHTLPDSLIRIYFRNHREKEQLVTRNNINKDIINQFLESNDDIEHHRSIDIIDRHFTKIRNPSYDPIIYQKAFEIYDAIHPNIFKMGKVNGKYLTLIRLKPHKCFLSNKFHEQENAYLYISMSDTTYKISFGCYRFCSKKKMEYLGSLIQGNLMKNSPYIDDTDGTTKKHDFNINIKFLSDSDDESINAPNNIKSLESIKSSKSKKQLKSSKSKKPIKHTKTKNIYVET | 2
gp577 mutant D239A (enzyme, Acanthamoeba polyphaga mimivirus, UniProt A0A0G2YDL0 1-470, looked up) MAEDKIEAYNKSITRTKYFKMDDAINSPICSKTVFIIANERITKENRIGRYYTVFPSFKKFLKKRDSYPHCHEIIIDHINNKTNIAGRLVFDFDIKITDSSILKDTGLIDKNDNQPIMFNSKTLSITKIPLNFKQQIENTIIETIDQYFHDIDKTILEFIWSTSQNPNKFSKHLTVKNLYFDDWITMSKLFYKLFCKVWDNQYYWISSKDLVDSQIVRNKGSLRMVGSTKINGYPLVFANKNHTLPDSLIRIYFRNHREKEQLVTRNNINKDIINQFLESNDDIEHHRSIDIIDRHFTKIRNPSYDPIIYQKAFEIYDAIHPNIFKMGKVNGKYLTLIRLKPHKCFLSNKFHEQENAYLYISMSDTTYKISFGCYRFCSKKKMEYLGSLIQGNLMKNSPYIDDTDGTTKKHDFNINIKFLSDSDDESINAPNNIKSLESIKSSKSKKQLKSSKSKKPIKHTKTKNIYVET | 2
gp577 mutant D213A (enzyme, Acanthamoeba polyphaga mimivirus, UniProt A0A0G2YDL0 1-470, looked up) MAEDKIEAYNKSITRTKYFKMDDAINSPICSKTVFIIANERITKENRIGRYYTVFPSFKKFLKKRDSYPHCHEIIIDHINNKTNIAGRLVFDFDIKITDSSILKDTGLIDKNDNQPIMFNSKTLSITKIPLNFKQQIENTIIETIDQYFHDIDKTILEFIWSTSQNPNKFSKHLTVKNLYFDDWITMSKLFYKLFCKVWDNQYYWISSKDLVASQIVRNKGSLRMVGSTKINGYPLVFDNKNHTLPDSLIRIYFRNHREKEQLVTRNNINKDIINQFLESNDDIEHHRSIDIIDRHFTKIRNPSYDPIIYQKAFEIYDAIHPNIFKMGKVNGKYLTLIRLKPHKCFLSNKFHEQENAYLYISMSDTTYKISFGCYRFCSKKKMEYLGSLIQGNLMKNSPYIDDTDGTTKKHDFNINIKFLSDSDDESINAPNNIKSLESIKSSKSKKQLKSSKSKKPIKHTKTKNIYVET | 2
gp577 mutant D151A (enzyme, Acanthamoeba polyphaga mimivirus, UniProt A0A0G2YDL0 1-470, looked up) MAEDKIEAYNKSITRTKYFKMDDAINSPICSKTVFIIANERITKENRIGRYYTVFPSFKKFLKKRDSYPHCHEIIIDHINNKTNIAGRLVFDFDIKITDSSILKDTGLIDKNDNQPIMFNSKTLSITKIPLNFKQQIENTIIETIDQYFHAIDKTILEFIWSTSQNPNKFSKHLTVKNLYFDDWITMSKLFYKLFCKVWDNQYYWISSKDLVDSQIVRNKGSLRMVGSTKINGYPLVFDNKNHTLPDSLIRIYFRNHREKEQLVTRNNINKDIINQFLESNDDIEHHRSIDIIDRHFTKIRNPSYDPIIYQKAFEIYDAIHPNIFKMGKVNGKYLTLIRLKPHKCFLSNKFHEQENAYLYISMSDTTYKISFGCYRFCSKKKMEYLGSLIQGNLMKNSPYIDDTDGTTKKHDFNINIKFLSDSDDESINAPNNIKSLESIKSSKSKKQLKSSKSKKPIKHTKTKNIYVET | 2
gp577 mutant H173A (enzyme, Acanthamoeba polyphaga mimivirus, UniProt A0A0G2YDL0 1-470, looked up) MAEDKIEAYNKSITRTKYFKMDDAINSPICSKTVFIIANERITKENRIGRYYTVFPSFKKFLKKRDSYPHCHEIIIDHINNKTNIAGRLVFDFDIKITDSSILKDTGLIDKNDNQPIMFNSKTLSITKIPLNFKQQIENTIIETIDQYFHDIDKTILEFIWSTSQNPNKFSKALTVKNLYFDDWITMSKLFYKLFCKVWDNQYYWISSKDLVDSQIVRNKGSLRMVGSTKINGYPLVFDNKNHTLPDSLIRIYFRNHREKEQLVTRNNINKDIINQFLESNDDIEHHRSIDIIDRHFTKIRNPSYDPIIYQKAFEIYDAIHPNIFKMGKVNGKYLTLIRLKPHKCFLSNKFHEQENAYLYISMSDTTYKISFGCYRFCSKKKMEYLGSLIQGNLMKNSPYIDDTDGTTKKHDFNINIKFLSDSDDESINAPNNIKSLESIKSSKSKKQLKSSKSKKPIKHTKTKNIYVET | 2
